Source: patent US20240392023A1 (ABCLON, published 2024)

T1: CD30 expressed on cells (CD30-293T, SUDHL1, HDLM-2) (UniProt P28908 19-595)
T1 sequence (looked up): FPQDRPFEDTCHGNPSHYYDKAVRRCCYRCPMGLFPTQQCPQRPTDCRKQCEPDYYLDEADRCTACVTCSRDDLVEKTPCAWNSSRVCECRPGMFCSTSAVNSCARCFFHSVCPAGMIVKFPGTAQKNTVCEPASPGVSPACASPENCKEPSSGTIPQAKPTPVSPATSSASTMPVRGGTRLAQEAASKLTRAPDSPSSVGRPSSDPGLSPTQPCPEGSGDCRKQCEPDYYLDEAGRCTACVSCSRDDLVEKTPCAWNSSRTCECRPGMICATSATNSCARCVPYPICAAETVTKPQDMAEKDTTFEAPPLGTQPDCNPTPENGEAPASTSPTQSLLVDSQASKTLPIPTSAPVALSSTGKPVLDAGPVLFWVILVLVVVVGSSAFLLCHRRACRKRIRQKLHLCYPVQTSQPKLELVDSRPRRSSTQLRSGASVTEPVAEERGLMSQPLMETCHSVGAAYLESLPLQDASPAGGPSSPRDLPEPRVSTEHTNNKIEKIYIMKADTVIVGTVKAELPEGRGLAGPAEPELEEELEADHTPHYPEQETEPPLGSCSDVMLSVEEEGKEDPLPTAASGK

T2: CD30-His (Sino Biological, 10777-H08H) (UniProt P28908 19-379)
T2 construct: Bought protein; also called CD30-His protein; CD30 protein; not shown: His tag
T2 sequence (looked up): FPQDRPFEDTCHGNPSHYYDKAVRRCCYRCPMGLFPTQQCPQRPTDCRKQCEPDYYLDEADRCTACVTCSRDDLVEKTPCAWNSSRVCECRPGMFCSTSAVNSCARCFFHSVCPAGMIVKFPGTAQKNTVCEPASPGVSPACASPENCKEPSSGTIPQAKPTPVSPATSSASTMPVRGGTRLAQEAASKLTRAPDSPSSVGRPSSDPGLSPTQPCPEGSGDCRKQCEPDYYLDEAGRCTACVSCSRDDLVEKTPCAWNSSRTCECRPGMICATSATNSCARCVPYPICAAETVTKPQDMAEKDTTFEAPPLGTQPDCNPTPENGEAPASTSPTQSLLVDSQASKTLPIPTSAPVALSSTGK


Key:
[1] = biological target: T1, CD30 expressed on cells (CD30-293T, …); assay: cell-based or functional assay
[2] = biological target: T1, CD30 expressed on cells (CD30-293T, …); assay: cell-based or functional assay; remark: listed apart in the source
[3] = biological target: T1, CD30 expressed on cells (CD30-293T, …); assay: cell-based or functional assay; remark: listed apart in the source
[4] = biological target: T2, CD30-His (Sino Biological, 10777-H08H); assay: ELISA, scFv-Fc titrated on plate coated with 1 µg/mL CD30-His
Procedure: For ELISA, the eleven purified anti-CD30 scFv-Fc forms and the positive control HRS scFV-Fc were 1/3 diluted for 10 points starting from 10 μg/mL in a plate coated with 1 μg/mL CD30-His protein. After treatment with a secondary antibody (anti-hIgG-Fc-HRP (Invitrogen, H10007)), a color was developed with TMB. OD₄₅₀ values were read using an ELISA reader, and EC₅₀ values were measured by means of Graph prism (FIG. 1, Table 3).

Binder	EC50 [4]	other results
scFv CAR of anti CD30 antibody (T1-159), on CAR-T cells (other) EVQLLESGGGLVQPGGSLRLSCAASGFTFSSYGMSWVRQAPGKGLEWVSSIYYYSGGTYYADSVKGRFTISRDNSKNTLYLQMNSLRAEDTAVYYCARNDYRNNSDFDYWGQGTLVTVSSGGGGSGGGGSGGGGSQSVLTQPPSASGTPGQRVTISCSGSSSNIGSNYVYWYQQLPGTAPKLLIYRNNQRPSGVPDRFSGSKSGTSASLAISGLRSEDEADYYCAAYYPYYYVFGGGTKLTVLGGQAGQTTTPAPRPPTPAPTIASQPLSLRPEACRPAAGGAVHTRGLDFACDIYIWAPLAGTCGVLLLSLVITLYCKRGRKKLLYIFKQPFMRPVQTTQEEDGCSCRFPEEEEGGCELRVKFSRSADAPAYQQGQNQLYNELNLGRREEYDVLDKRRGRDPEMGGKPRRKNPQEGLYNELQKDKMAEAYSEIGMKGERRRGKGHDGLYQGLSTATKDTYDALHMQALPPR	–	tumor death rate on HDLM-2 cells, ratio of CAR-T to the target 0.25 [1]: ≥ 50%; Cytotoxicity (%) against CD30-expressing cell (SUDHL1), CAR-T/Target 0.11 [2]: 24%; Cytotoxicity (%) against CD30-expressing cell (SUDHL1), CAR-T/Target 0.33 [2]: 58%; Cytotoxicity (%) against CD30-expressing cell (SUDHL1), CAR-T/Target 1 [2]: 88%; Cytotoxicity (%) against CD30-expressing cell (CD30-293T), CAR-T/Target 0.11 [3]: -4%; Cytotoxicity (%) against CD30-expressing cell (CD30-293T), CAR-T/Target 0.33 [3]: 60%; Cytotoxicity (%) against CD30-expressing cell (CD30-293T), CAR-T/Target 1 [3]: 72%
T1-2 anti-CD30 scFv-Fc (Fc fusion, Cloned in an scFv-Fc-conjugated form (Zb-Fc); detected with anti-human IgG Fc; also called Zb-Fc form; not shown: Fc of the scFv-Fc (Zb-Fc) form and any junction to it) scFv: EVQLLESGGGLVQPGGSLRLSCAASGFTFSGYGMSWVRQAPGKGLEWVSYISGYSYYTYYADSVKGRFTFSRDNSKNTLYLQMNSLRAEDTAVYYCARYDGNGFDYWGQGTLVTVSSGGGGSGGGGSGGGGSQSVLTQPPSASGTPGQRVTISCSGSSSNIGSNYVYWYQQLPGTAPKLLIYRNNQRPSGVPDRFSGSKSGTSASLAISGLRSEDEADYYCAADSSDDSYVFGGGTKLTVLG	0.06 µg/mL	–
T1-7 anti-CD30 scFv-Fc (Fc fusion, scFv-Fc-conjugated form (Zb-Fc); also called Zb-Fc form; not shown: Fc of the scFv-Fc (Zb-Fc) form and any junction to it) scFv: EVQLLESGGGLVQPGGSLRLSCAASGFTFSGYGMSWVRQAPGKGLEWVSYISSGSYYTYYADSVKGRFTISRDNSKNTLYLQMNSLRAEDTAVYYCARYRGDNDYYGYFDYWGQGTLVTVSSGGGGSGGGGSGGGGSQSVLTQPPSASGTPGQRVTISCSCSSSNIGNNAVSWYQQLPGTAPKLLIYRNNQRPSGVPDRFSGSKSGTSASLAISGLRSEDEADYYCAADYGSDYVFGGGTKLTVLG	0.048 µg/mL	–
T1-8 anti-CD30 scFv-Fc (Fc fusion, scFv-Fc-conjugated form (Zb-Fc); also called Zb-Fc form; not shown: Human Fc of the scFv-Fc (Zb-Fc) form and its junction to the scFv) scFv: EVQLLESGGGLVQPGGSLRLSCAASGFTFSSYMSWVRQAPGKGLEWVSSIGSGYYSTYYADSVKGRFTISRDNSKNTLYLQMNSLRAEDTAVYYCARDYYGGFDYWGQGTLVTVSSGGGGSGGGGSGGGGSQSVLTQPPSASGTPGQRVTISCSGSSSNIGSNYVYWYQQLPGTAPKLLIYRNNQRPSGVPDRFSGSKSGTSASLAISGLRSEDEADYYCAAYDSYSYVFGGGTKLTVLG	0.051 µg/mL	–
T1-9 anti-CD30 scFv-Fc (Fc fusion, scFv-Fc-conjugated form (Zb-Fc); also called Zb-Fc form; not shown: Fc of the scFv-Fc (Zb-Fc) form and its junction) scFv: EVQLLESGGGLVQPGGSLRLSCAASGFTFSYYGMSWVRQAPGKGLEWVSGIGSYSSYTYYADSVKGRFTISRDNSKNTLYLQMNSLRAEDTAVYYCARYASSPDAYFDYWGQGTLVTVSSGGGGSGGGGSGGGGSQSVLTQPPSASGTPGQRVTISCSGSSSNIGSNYVYWYQQLPGTAPKLLIYRNNQRPSGVPGRFSGSKSGTSASLAISGLRSEDEADYYCAAYYNYNYVFGGGTKLTVLG	0.026 µg/mL	–
T1-10 anti-CD30 scFv-Fc (Fc fusion, scFv-Fc-conjugated form (Zb-Fc); also called Zb-Fc form; not shown: Fc of the scFv-Fc (Zb-Fc) form and its junction) scFv: EVQLLESGGGLVQPGGSLRLSCAASGFTFSSYGMSWVRQAPGKGLEWVSYISGGSYYTYYADSVKGRFTISRDNSKNTLYLQMNSLRAEDTAVYYCARYGYGYYDGSFDYWGQGTLVTVSSGGGGSGGGGSGGGGSQSVLTQPPSASGTPGQRVTISCSGSSSNIGSNYVYWYQQLPGTAPKLLIYRNNQRPSGVPDRFSGSKSGTSASLAISGLRSEDEADYYCAADGPYNYVFGGGTKLTVLG	0.031 µg/mL	–
T1-23 anti-CD30 scFv-Fc (Fc fusion, scFv-Fc-conjugated form (Zb-Fc); also called Zb-Fc form; not shown: Fc of the scFv-Fc (Zb-Fc) form and its junction) scFv: EVQLLESGGGLVQPGGSLRLSCAASGFTFSSYSMSWVRQAPGKGLEWVSGIGYPYYTYYADSVKGRFTISRDNSKNTLYLQMNSLRAEDTAVYYCARYYYDYGFDYWGQGTLVTVSSGGGGSGGGGSGGGGSQSVLTQPPSASGTPGQRVTISCSGSSSNIGSNYVYWYQQLPGTAPKLLIYRNNQRPSGVPDRFSGSKSGTSASLAISGLRSEDEADYYCAAYRSYDYVFGGGTKLTVLG	0.023 µg/mL	–
T1-36 anti-CD30 scFv-Fc (Fc fusion, scFv-Fc-conjugated form (Zb-Fc); also called Zb-Fc form; not shown: Fc of the scFv-Fc (Zb-Fc) form and its junction) scFv: EVQLLESGGGLVQPGGSLRLSCAASGFTFSYYYMSWVRQAPGKGLEWVSYIGGGGSGTYYADSVKGRFTISRDNSKNTLYLQMNSLRAEDTAVYYCARGPYYGYFDYWGQGTLVTVSSGGGGSGGGGSGGGGSQSVLTQPPSASGTPGQRVTISCSGSSSNIGSNYVYWYQQLPGTAPKLLIYRNNQRPSGVPDRFSGSKSGTSASLAISGLRSEDEADYYCAAYPSYDSYVFGGGTKLTVLG	0.021 µg/mL	–
T1-117 anti-CD30 scFv-Fc (Fc fusion, scFv-Fc-conjugated form (Zb-Fc); also called Zb-Fc form; not shown: Fc of the scFv-Fc (Zb-Fc) form and its junction) scFv: EVQLLESGGGLVQPGGSLRLSCAASGFTFSYYGMSWVRQAPGKGLEWVSYISGYSSYTYYADSVKGRFTISRDNSKNTLYLQMNSLRAEDTAVYYCARYNDSGSFDYWGQGTLVTVSSGGGGSGGGGSGGGGSQSVLTQPPSASGTPGQRVTISCSGSSSNIGSNYVYWYQQLPGTAPKLLIYRNNQRPSGVPDRFSGSKSGTSASLAISGLRSEDEADYYCAADAGNRYVFGGGTKLTVLG	0.157 µg/mL	–
T1-141 anti-CD30 scFv-Fc (Fc fusion, scFv-Fc-conjugated form (Zb-Fc); also called Zb-Fc form; not shown: Fc of the scFv-Fc (Zb-Fc) form and its junction) scFv: EVQLLESGGGLVQPGGSLRLSCAASGFTFSYYDMSWVRQAPGKGLEWVSGIYGSGSTYYADSVKGRFTISRDNSKNTLYLQMNSLRAEDTAVYYCARYSYYDSYSDYFDYWGQGTLVTVSSGGGGSGGGGSGGGGSQSVLTQPPSASGTPGQRVTISCSGSSSNIGSNYVYWYQQLPGTAPKLLIYRNNQRPSGVPDRFSGSKSGTSASLAISGLRSEDEADYYCAAYSYGYYVFGGGTKLTVLG	0.026 µg/mL	–
T1-159 anti-CD30 scFv-Fc (Fc fusion, scFv-Fc-conjugated form (Zb-Fc); also called Zb-Fc form; not shown: Fc of the scFv-Fc (Zb-Fc) form and any junction to it) scFv: EVQLLESGGGLVQPGGSLRLSCAASGFTFSSYGMSWVRQAPGKGLEWVSSIYYYSGGTYYADSVKGRFTISRDNSKNTLYLQMNSLRAEDTAVYYCARNDYRNNSDFDYWGQGTLVTVSSGGGGSGGGGSGGGGSQSVLTQPPSASGTPGQRVTISCSGSSSNIGSNYVYWYQQLPGTAPKLLIYRNNQRPSGVPDRFSGSKSGTSASLAISGLRSEDEADYYCAAYYPYYYVFGGGTKLTVLG	0.26 µg/mL	–
T2-2 anti-CD30 scFv-Fc (Fc fusion, scFv-Fc-conjugated form (Zb-Fc); also called Zb-Fc form; not shown: Fc of the scFv-Fc form (Zb-Fc)) EVQLLESGGGLVQPGGSLRLSCAASGFTFSSYHMSWVRQAPGKGLEWVSGIGYGHGGTYYADSVKGRFTISRDNSKNTLYLQMNSLRAEDTAVYYCARYDYDYSFDYWGQGTLVTVSSGGGGSGGGGSGGGGSQSVLTQPPSASGTPGQRVTISCSGSSSNIGSNYVYWYQQLPGTAPKLLIYRNNQRPSGVPDRFSGSKSGTSASLAISGLRSEDEADYYCAVSSPYSYVFGGGTKLTVLG	0.038 µg/mL	–
